Source: patent publication US20240059769A1 (BIOLOJIC DESIGN, published 2024)
Like-named read-outs stand apart in the source and are kept apart here.

Tests used:
recombinant human IL-13 [1] = target: T1, recombinant human IL-13 (human, UniProt P35225 35-146); experiment: SPR
T1 construct: also called rh-IL-13; hIL-13

human TSLP [2] = target: T2, human TSLP (human, UniProt Q969D9 29-159); experiment: SPR
T2 construct: also called hTSLP; rhTSLP

recombinant human IL-13 [3] = target: T1, recombinant human IL-13; experiment: cell-based or functional assay
recombinant human IL-13 [4] = target: T1, recombinant human IL-13; experiment: cell-based or functional assay; remark: listed apart in the source
hTSLP-His [5] = target: T3, hTSLP-His (human, UniProt Q969D9 29-159, limits assumed); experiment: competition ELISA, 7 nM TSLP-His pre-incubated with antibody; competitor Tezepelumab coated
T3 construct: bought; also called hTSLP (ACROBiosystems TSP-H52Hb); not shown: His tag

recombinant human IL-13 [6] = target: T1, recombinant human IL-13; experiment: SPR; remark: listed apart in the source
human TSLP [7] = target: T2, human TSLP; experiment: SPR; remark: listed apart in the source
[8] = target: T4, recombinant cynomolgus monkey IL-13 (cynomolgus monkey, UniProt Q0PW92 21-132); experiment: SPR
T4 construct: bought; also called rc-IL-13; cIL-13
T4 sequence (Q0PW92 entry or part of it): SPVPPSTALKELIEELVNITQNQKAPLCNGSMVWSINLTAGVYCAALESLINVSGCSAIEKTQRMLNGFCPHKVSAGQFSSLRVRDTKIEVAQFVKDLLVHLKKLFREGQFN

[9] = target: T5, cynomolgus monkey (cyno) TSLP (cynomolgus monkey, UniProt A0A7N9CAT7 29-159); experiment: SPR
T5 construct: also called cTSLP; cynomolgus TSLP
T5 sequence (A0A7N9CAT7 entry or part of it): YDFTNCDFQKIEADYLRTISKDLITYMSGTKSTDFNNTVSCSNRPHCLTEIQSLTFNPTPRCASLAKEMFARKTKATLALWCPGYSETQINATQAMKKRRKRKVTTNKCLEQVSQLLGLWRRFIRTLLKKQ

hTSLP-His [10] = target: T3, hTSLP-His; experiment: cell-based or functional assay

T1 sequence (P35225 35-146 limits assumed): as the sequence (Q0PW92 entry or part of it) above, with S1G, K10R, V42M, N67S, R83H, V100L counted along it

Binder	Kd (recombinant human IL-13 [1]) [pM]	koff (recombinant human IL-13 [1]) [s⁻¹]	kon (recombinant human IL-13 [1]) [M⁻¹ s⁻¹]	Kd (human TSLP [2]) [pM]	IC50 CD23 (recombinant human IL-13 [3]) [pM]	HEK-IL-13 [nM] (IC50, STAT6 reporter) (recombinant human IL-13 [4])	IC50 (hTSLP-His [5]) [pM]	Kd (recombinant human IL-13 [6]) [pM]	koff (recombinant human IL-13 [6]) [s⁻¹]	kon (recombinant human IL-13 [6]) [M⁻¹ s⁻¹]	Kd (human TSLP [7]) [pM]	koff (human TSLP [7]) [s⁻¹]	kon (human TSLP [7]) [M⁻¹ s⁻¹]	Kd [8] [pM]	koff [8] [s⁻¹]	kon [8] [M⁻¹ s⁻¹]	Kd [9] [pM]	koff [9] [s⁻¹]	kon [9] [M⁻¹ s⁻¹]	IC50 [pM], STAT5 phosphorylation inhibition in MUTZ5 cells (hTSLP-His [10]) [pM]	further results
BDG38.106 (antibody, V domains shown, IgG1) VH: QMQLVESGGGVVQPGRSLTLSCAASGFEFRTYGMHWVRQAPGKGLEWVAVIWDDGSNTVYADSVKGRFTITRDNSKNTLNLQMNSLRVEDTAVYYCVRAPQWYLTAEAFDLWGQGTMVTVSS VL: SYILTQPPSVSVAPGQTATITCGGNLIGSRLVHWYQQKPGQAPVLVIYDDSDRPSRIPERFSGSNIGNTATLTIEDVEEGDEADYYCQVWDHYSDHMVFGGGTKLTVL	34.6	0.000205	5.93e+06	52.5	162	0.0113	10100														koff (human TSLP [2]): 0.000257 s⁻¹; kon (human TSLP [2]): 4.9e+06 M⁻¹ s⁻¹
BDG38.118 (antibody, V domains shown, IgG1) VH: QMQLVESGGGVVQPGRSLRLSCAASGFEFRTYGMHWVRQAPGKGLEWVGVIWYDGSATHYADSVKGRFTITRDNSKNTLNLQMNSLRVEDTAVYYCVRAPQWYLTAEAFDLWGQGTMVTVSS VL: SYILTQPPSVSVAPGETATITCGGNLIGARLVHWYQQKPGQAPVLVIYDDSDRPSRIPERFSGSNIGNTATLTISDVEEGDEADYYCQVWDYSSDHYVFGGGTKLTVL						0.0804		15.7	6.7e-05	4.27e+06	964	0.00043	446000							0.688	
BDG38.110 (antibody, V domains shown, IgG1) VH: QMQLVESGGGVVQPGRSLRLSCAASGFEFRTYGMHWVRQAPGKGLEWVAVIWDDGSNTHYADSVKGRFTITRDNSKNTLNLQMNSLRAEDTAVYYCVRAPQWYLTAEAFDLWGQGTMVTVSS VL: SYILTQPPSVSVAPGETTRITCGGNLIGAKLVHWYQQKPGQAPVLVIYDDSDRPSRIPERFSGSNIGNTATLTIEDVEAGDEADYYCQVWDYSSNHMVFGGGTKLTVL	74.2	0.000427	5.75e+06	129		0.0299														0.295	koff (human TSLP [2]): 0.000298 s⁻¹; kon (human TSLP [2]): 2.31e+06 M⁻¹ s⁻¹
BDG38.115 (antibody, V domains shown, IgG1) VH: QMQLVESGGGVVQPGRSLTLSCAASGFEFRTYGMHWVRQAPGKGLEWLGVIWYDGSNTHYADSVKGRFTITRDNSKNTLNLQMNSLRAEDTAVYYCVRAPQWYLTAEAFDLWGQGTMVTVSS VL: SYILTQPPSVSVAPGQTATITCGGNLIGARLVHWYQQKPGQAPVLVIYDDSDRPSRIPERFSGSNSGNTATLTISDVEEGDEADYYCQVWDYSSNTYVFGGGTKLTVL	125	0.000455	3.63e+06	840		0.0664														300	koff (human TSLP [2]): 0.000532 s⁻¹; kon (human TSLP [2]): 634000 M⁻¹ s⁻¹
BDG38.117 (antibody, V domains shown, IgG1) VH: QMQLVESGGGVVQPGRSLTLSCAASGFEFRTYGMHWVRQAPGKGLEWVGVIWDDGSNTHYADSVKGRFTITRDNSKNTLNLQMNSLRAEDTAVYYCARAPQWYLTAEAFDLWGQGTMVTVSS VL: SYVLTQPPSVSVAPGETATITCGGNLIGAKLVHWYQQKPGQAPVLVIYDDSDRPSRIPERFSGSNIGNTATLTIEDVEAGDEADYYCQVWDYSSDTMVFGGGTKLTVL	14.9	0.000103	6.94e+06	3.82	121	0.0801	6140							36.7	0.00144	3.94e+07	8.9	0.000452	5.08e+07	0.363	koff (human TSLP [2]): 2.7e-05 s⁻¹; kon (human TSLP [2]): 7.07e+06 M⁻¹ s⁻¹

Second part, led by results:

Kd (recombinant human IL-13 [1]) [pM]	koff (recombinant human IL-13 [1]) [s⁻¹]	kon (recombinant human IL-13 [1]) [M⁻¹ s⁻¹]	Kd (human TSLP [2]) [pM]	IC50 CD23 (recombinant human IL-13 [3]) [pM]	HEK-IL-13 [nM] (IC50, STAT6 reporter) (recombinant human IL-13 [4])	IC50 (hTSLP-His [5]) [pM]	Kd (recombinant human IL-13 [6]) [pM]	koff (recombinant human IL-13 [6]) [s⁻¹]	kon (recombinant human IL-13 [6]) [M⁻¹ s⁻¹]	Kd (human TSLP [7]) [pM]	koff (human TSLP [7]) [s⁻¹]	kon (human TSLP [7]) [M⁻¹ s⁻¹]	Kd [8] [pM]	koff [8] [s⁻¹]	kon [8] [M⁻¹ s⁻¹]	Kd [9] [pM]	koff [9] [s⁻¹]	kon [9] [M⁻¹ s⁻¹]	IC50 [pM], STAT5 phosphorylation inhibition in MUTZ5 cells (hTSLP-His [10]) [pM]	Binder	further results
				52.7	0.0562	8440	7.78	4.76e-05	6.12e+06	25.5	0.000121	4.76e+06	38.9	0.00135	3.46e+07	45.2	0.000119	2.64e+06		BDG38.125 (antibody, V domains shown, IgG1) VH: QMQLVESGGGVVQPGRSLRLSCAASGFEFRTYGMHWVRQAPGKGLEWVAVIWDDGSNTHYADSVKGRFTITRDNSKNTLNLQMNSLRAEDTAVYYCVRAPQWYLTAEAFDLWGQGTMVTVSS VL: SYVLTQPPSVSVAPGETATITCGGNLIGARLVHWYQQKPGQAPVLVIYDDSDRPSRIPERFSGSNIGNTATLTIERVEEGDEADYYCQVWDYSSDHMVFGGGTKLTVL	
					0.271		507	0.00156	3.07e+06	8.58	4.17e-05	4.86e+06							32	BDG38.134 (antibody, V domains shown, IgG1) VH: QMQLVESGGGVVQPGQSLRLSCAASGFEFRTYGMHWVRQAPGKGLEWLAVIWYDGSNTHYADSVKGRFTITRDNSKNTLNLQMNSLRAEDTAVYYCVRAPQWYNSAEAFDLWGQGTMVTVSS VL: SYVLTQPPSVSVAPGQTARITCGGNLIGARLVHWYQQKPGQAPVLVIYDDSDRPSHIPERFSGSNSGNTATLTISRVEAGDEADYYCQVWDYSADTMVFGGGTKLTVL	
				70	0.0443		179	0.000356	2e+06	0.0746	2.85e-07	3.82e+06								BDG38.131 (antibody, V domains shown, IgG1) VH: QMQLVESGGGVVQPGRSLTLSCAASGFEFRTYGMHWVRQAPGKGLEWVAVIWDDGSNTHYADSVKGRFTITRDNSKNTLNLQMNSLRAEDTAVYYCVRAPQWYLTAEAFDLWGQGTMVTVSS VL: SYILTQPPSVSVAPGETATITCGGNLIGAKLVHWYQQKPGQAPVLVIYDDSDRPSRIPERFSGSNIGNTATLTISDVEEGDEADYYCQVWDYYSNTMVFGGGTKLTVL	
				14.9	0.0523	5380	32.1	0.000176	5.49e+06	9.07	3.86e-05	4.25e+06	102	0.00309	3.02e+07	0.0492	7.62e-08	1.55e+06	0.0048	BDG38.128 (antibody, V domains shown, IgG1) VH: QMQLVESGGGVVQPGRSLTLSCAASGFEFRTYGMHWVRQAPGKGLEWVAVIWDDGSNTHYADSVKGRFTITRDNSKNTLNLQMNSLRVEDTAVYYCVRAPQWYLTAEAFDLWGQGTMVTVSS VL: SYILTQPPSVSVAPGETATITCGGNLIGAKLVHWYQQKPGQAPVLVIYDDSDRPSRIPERFSGSNSGNTATLTISDVEEGDEADYYCQVWDYYADTMVFGGGTKLTVL	
				12	0.0464	9570	27.5	0.000212	7.71e+06	3.27	2.54e-05	7.78e+06	339	0.0077	2.27e+07	2.39	1.55e-05	6.5e+06	89	BDG38.139 (antibody, V domains shown, IgG1) VH: QMQLVESGGGVVQPGRSLRLSCAASGFAFRTYGMHWVRQAPGKGLEWVAVIWDDGSNTHYADSVKGRFTITRDNSKNTLNLQMNSLRAEDTAVYYCVRAPQWYLSAEAFDLWGQGTMVTVSS VL: SYVLTQPPSVSVAPGETATITCGGNMIGAYLVHWYQQKPGQAPLLVIYDDVDRPARIPERFSGSNSGNTATLTISRVEAGDEADYYCQVWDHNSDHMVFGGGTKLTVL	
				29	0.0725	5490	16.7	0.000116	6.96e+06	22.6	9.12e-05	4.03e+06	23.1	0.0014	6.05e+07	14.1	5.27e-05	3.75e+06	0.676	BDG38.129 (antibody, V domains shown, IgG1) VH: QMQLVESGGGVVQPGRSLTLSCAASGFEFRTYGMHWVRQAPGKGLEWVGVIWDDGSNTHYADSVKGRFTITRDNSKNTLNLQMNSLRVEDTAVYYCARAPQWYLTAEAFDLWGQGTMVTVSS VL: SYILTQPPSVSVAPGQTATITCGGNLIGAKLVHWYQQKPGQAPVLVIYDDSDRPSRIPERFSGSNIGNTATLTISDVEEGDEADYYCQVWDYSSDHMVFGGGTKLTVL	
					0.044		8.47	5.01e-05	5.91e+06	991	0.000427	431000							0.143	BDG38.127 (antibody, V domains shown, IgG1) VH: QMQLVESGGGVVQPGRSLTLSCAASGFEFRTYGMHWVRQAPGKGLEWVGVIWYDGSATHYADSVKGRFTITRDNSKNTLNLQMNSLRAEDTAVYYCARAPQWYLTAEAFDLWGQGTMVTVSS VL: SYILTQPPSVSVAPGETATITCGGNLIGAKLVHWYQQKPGQAPVLVIYDDSDRPSRIPERFSGSNIGNTATLTISDVEAGDEADYYCQVWDYYSDTYVFGGGTKLTVL	
